B1: HDV Ribozyme (parent)
chain: GGCCGGCAUGGUCCCAGCCUCCUCGCUGGCGCCGGCUGGGCAACAUUCCGAGGGGACCGUCCCCUCGGUAAUGGCGAAUGGGACCCA

Variants of: B1
Assay: self-cleavage, relative activity (ratio to wild type); higher = more cleavage; co-transcriptional

Going from GGCCGGCAUGGUCCCAGCCUCCUCGCUGGCGCCGGCUGGGCAACAUUCCGAGGGGACCGUCCCCUCGGUAAUGGCUGAUGGGACCCA [G76U A77G] to GGCCGGCAUGGUCCCAGCCUCCUCGCUGGCGCCGGCUGGGCAACAUUCCGAGGGGACCGUCCCCUCGGUAAUGGCUAGUGGGACCCA [G76U A78G], the self-cleavage rises from 0.978 to 1.34.

First: GGCCGGCAUGGUCCCAGCCUCCUCGCUGGCGCCGGCUGGGCAACAUUCCGAGGGGACCGUCCCCUCGGUAAUGGCUAAUGGGCCCCA [G76U A83C]
Second: GGCCGGCAUGGUCCCAGCCUCCUCGCUGGCGCCGGCUGGGCAACAUUCCGAGGGGACCGUCCCCUCGGUAAUGGCUAAUGGGGCCCA [G76U A83G]
The self-cleavage of the first is lower: 0.755 for the first, 0.787 for the second.

Going from GGCCGGCAUGGUCCCAGCCUCCUCGCUGGCGCCGGCUGGGCAACAUUCCGAGGGGACCGUCCCCUCGGUAAUGGCUAAUGGGUCCCA [G76U A83U] to GGCCGGCAUGGUCCCAGCCUCCUCGCUGGCGCCGGCUGGGCAACAUUCCGAGGGGACCGUCCCCUCGGUAAUGGCUAAUGGGACCCC [G76U A87C], the self-cleavage rises from 0.481 to 1.17.

Compared with GGCCGGCAUGGUCCCAGCCUCCUCGCUGGCGCCGGCUGGGCAACAUUCCGAGGGGACCGUCCCCUCGGUAAUGGCUAAUGGGACCCG [G76U A87G], GGCCGGCAUGGUCCCAGCCUCCUCGCUGGCGCCGGCUGGGCAACAUUCCGAGGGGACCGUCCCCUCGGUAAUGGCUAAUGGGACCUA [G76U C86U] is lower in self-cleavage: 1.13 for the first, 0.852 for the second.

First: GGCCGGCAUGGUCCCAGCCUCCUCGCUGGCGCCGGCUGGGCAACAUUCCGAGGGGACCGUCCCCUCGGUAAUGGCGCAUGGGACCCA [A77C]
Second: GGCCGGCAUGGUCCCAGCCUCCUCGCUGGCGCCGGCUGGGCAACAUUCCGAGGGGACCGUCCCCUCGGUAAUGGCGCCUGGGACCCA [A77C A78C]
The self-cleavage of the first is higher: 0.377 for the first, 0.208 for the second.

Going from GGCCGGCAUGGUCCCAGCCUCCUCGCUGGCGCCGGCUGGGCAACAUUCCGAGGGGACCGUCCCCUCGGUAAUGGCGCAUGGGACCCU [A77C A87U] to GGCCGGCAUGGUCCCAGCCUCCUCGCUGGCGCCGGCUGGGCAACAUUCCGAGGGGACCGUCCCCUCGGUAAUGGCGCAUGGGAUCCA [A77C C84U], the self-cleavage falls from 0.466 to 0.326.

Compared with GGCCGGCAUGGUCCCAGCCUCCUCGCUGGCGCCGGCUGGGCAACAUUCCGAGGGGACCGUCCCCUCGGUAAUGGCGCAUGGGACACA [A77C C85A], GGCCGGCAUGGUCCCAGCCUCCUCGCUGGCGCCGGCUGGGCAACAUUCCGAGGGGACCGUCCCCUCGGUAAUGGCGCAUGGGACGCA [A77C C85G] is lower in self-cleavage: 0.506 for the first, 0.492 for the second.

Compared with GGCCGGCAUGGUCCCAGCCUCCUCGCUGGCGCCGGCUGGGCAACAUUCCGAGGGGACCGUCCCCUCGGUAAUGGCGCAUGGGACCAA [A77C C86A], GGCCGGCAUGGUCCCAGCCUCCUCGCUGGCGCCGGCUGGGCAACAUUCCGAGGGGACCGUCCCCUCGGUAAUGGCGCAUGCGACCCA [A77C G81C] is lower in self-cleavage: 0.407 for the first, 0.0504 for the second.

Compared with GGCCGGCAUGGUCCCAGCCUCCUCGCUGGCGCCGGCUGGGCAACAUUCCGAGGGGACCGUCCCCUCGGUAAUGGCGCAUGGAACCCA [A77C G82A], GGCCGGCAUGGUCCCAGCCUCCUCGCUGGCGCCGGCUGGGCAACAUUCCGAGGGGACCGUCCCCUCGGUAAUGGCGGAUGGGACCCA [A77G] is higher in self-cleavage: 0.358 for the first, 0.887 for the second.

Compared with GGCCGGCAUGGUCCCAGCCUCCUCGCUGGCGCCGGCUGGGCAACAUUCCGAGGGGACCGUCCCCUCGGUAAUGGCGGAUGGGAACCA [A77G C84A], GGCCGGCAUGGUCCCAGCCUCCUCGCUGGCGCCGGCUGGGCAACAUUCCGAGGGGACCGUCCCCUCGGUAAUGGCGGAUGGGAGCCA [A77G C84G] is higher in self-cleavage: 0.464 for the first, 0.573 for the second.

First: GGCCGGCAUGGUCCCAGCCUCCUCGCUGGCGCCGGCUGGGCAACAUUCCGAGGGGACCGUCCCCUCGGUAAUGGCGGAUGGGACACA [A77G C85A]
Second: GGCCGGCAUGGUCCCAGCCUCCUCGCUGGCGCCGGCUGGGCAACAUUCCGAGGGGACCGUCCCCUCGGUAAUGGCGGAUGGGACCAA [A77G C86A]
The self-cleavage of the first is lower: 0.851 for the first, 1.15 for the second.

First: GGCCGGCAUGGUCCCAGCCUCCUCGCUGGCGCCGGCUGGGCAACAUUCCGAGGGGACCGUCCCCUCGGUAAUGGCGGAUGGGACCGA [A77G C86G]
Second: GGCCGGCAUGGUCCCAGCCUCCUCGCUGGCGCCGGCUGGGCAACAUUCCGAGGGGACCGUCCCCUCGGUAAUGGCGGAUCGGACCCA [A77G G80C]
The self-cleavage of the first is higher: 0.886 for the first, 0.0437 for the second.

First: GGCCGGCAUGGUCCCAGCCUCCUCGCUGGCGCCGGCUGGGCAACAUUCCGAGGGGACCGUCCCCUCGGUAAUGGCGGAUGGCACCCA [A77G G82C]
Second: GGCCGGCAUGGUCCCAGCCUCCUCGCUGGCGCCGGCUGGGCAACAUUCCGAGGGGACCGUCCCCUCGGUAAUGGCGUAUGGGACCCA [A77U]
The self-cleavage of the first is lower: 0.389 for the first, 0.623 for the second.

Going from GGCCGGCAUGGUCCCAGCCUCCUCGCUGGCGCCGGCUGGGCAACAUUCCGAGGGGACCGUCCCCUCGGUAAUGGCGUGUGGGACCCA [A77U A78G] to GGCCGGCAUGGUCCCAGCCUCCUCGCUGGCGCCGGCUGGGCAACAUUCCGAGGGGACCGUCCCCUCGGUAAUGGCGUAUGGGCCCCA [A77U A83C], the self-cleavage falls from 0.443 to 0.231.

Going from GGCCGGCAUGGUCCCAGCCUCCUCGCUGGCGCCGGCUGGGCAACAUUCCGAGGGGACCGUCCCCUCGGUAAUGGCGUAUGGGGCCCA [A77U A83G] to GGCCGGCAUGGUCCCAGCCUCCUCGCUGGCGCCGGCUGGGCAACAUUCCGAGGGGACCGUCCCCUCGGUAAUGGCGUAUGGGACCCC [A77U A87C], the self-cleavage rises from 0.261 to 0.655.

Going from GGCCGGCAUGGUCCCAGCCUCCUCGCUGGCGCCGGCUGGGCAACAUUCCGAGGGGACCGUCCCCUCGGUAAUGGCGUAUGGGACGCA [A77U C85G] to GGCCGGCAUGGUCCCAGCCUCCUCGCUGGCGCCGGCUGGGCAACAUUCCGAGGGGACCGUCCCCUCGGUAAUGGCGUAUGGGACUCA [A77U C85U], the self-cleavage rises from 0.299 to 0.96.

Source: the RNAGym collection of RNA variant scans (doi:10.7554/elife.80360)
